Assay results as given in patent publication US20230235013A1 (MABSOLVE, published 2023).
Residue numbers refer to the chain shown, from its start. Numbers in names are those of the source.

B1: anti-CD20 human IgG1 L234T/G236R (antibody)
heavy: not shown
light: QIVLSQSPAILSASPGEKVTMTCRASSSVSYIHWFQQKPGSSPKPWIYATSNLASGVPVRFSGSGSGTSYSLTISRVEAEDAATYYCQQWTSNPPTFGGGTKLEIKRTVAAPSVFIFPPSDEQLKSGTASVVCLLNNFYPREAKVQWKVDNALQSGNSQESVTEQDSKDSTYSLSSTLTLSKADYEKHKVYACEVTHQGLSSPVTKSFNRGEC
notes: also called 2-59; 1-159
B2: anti-CD20 human IgG1 G236R/L328R (antibody)
heavy: not shown
light: B1 light
notes: also called 2-68
B3: anti-CD20 human IgG1 L235V/F243L/R292P/Y300L/P396L (antibody)
heavy: QVQLQQPGAELVKPGASVKMSCKASGYTFTSYNMHWVKQTPGRGLEWIGAIYPGNGDTSYNQKFKGKATLTADKSSSTAYMQLSSLTSEDSAVYYCARSTYYGGDWYFNVWGAGTTVTVSSASTKGPSVFPLAPSSKSTSGGTAALGCLVKDYFPEPVTVSWNSGALTSGVHTFPAVLQSSGLYSLSSVVTVPSSSLGTQTYICNVNHKPSNTKVDKKVEPKSCDKTHTCPPCPAPELVGGPSVFLLPPKPKDTLMISRTPEVTCVVVDVSHEDPEVKFNWYVDGVEVHNAKTKPPEEQYNSTLRVVSVLTVLHQDWLNGKEYKCKVSNKALPAPIEKTISKAKGQPREPQVYTLPPSRDELTKNQVSLTCLVKGFYPSDIAVEWESNGQPENNYKTTPLVLDSDGSFFLYSKLTVDKSRWQQGNVFSCSVMHEALHNHYTQKSLSLSPGK
light: B1 light
notes: also called 2-72
B4: anti-CD20 human IgG1 L234Q/L235T/G236R (antibody)
heavy: B3 heavy with L238Q, V239T, G240R, L247F, P296R, L304Y, L400P
light: B1 light
notes: also called 1-120
B5: anti-CD20 human IgG1 L234S/L235S/G236R (antibody)
heavy: B3 heavy with L238S, V239S, G240R, L247F, P296R, L304Y, L400P
light: B1 light
notes: also called 1-149; copies: 2 + 2
B6: anti-CD20 human IgG1 L234R/L235R/G236R (antibody)
heavy: B3 heavy with L238R, V239R, G240R, L247F, P296R, L304Y, L400P
light: B1 light
notes: also called 2-43; copies: 2 + 2
B7: anti-CD20 human IgG1 L234T/L235N/G236R (antibody)
heavy: B3 heavy with L238T, V239N, G240R, L247F, P296R, L304Y, L400P
light: B1 light
notes: copies: 2 + 2
B8: anti-CD20 human IgG1 L234T/L235A/G236R (antibody)
heavy: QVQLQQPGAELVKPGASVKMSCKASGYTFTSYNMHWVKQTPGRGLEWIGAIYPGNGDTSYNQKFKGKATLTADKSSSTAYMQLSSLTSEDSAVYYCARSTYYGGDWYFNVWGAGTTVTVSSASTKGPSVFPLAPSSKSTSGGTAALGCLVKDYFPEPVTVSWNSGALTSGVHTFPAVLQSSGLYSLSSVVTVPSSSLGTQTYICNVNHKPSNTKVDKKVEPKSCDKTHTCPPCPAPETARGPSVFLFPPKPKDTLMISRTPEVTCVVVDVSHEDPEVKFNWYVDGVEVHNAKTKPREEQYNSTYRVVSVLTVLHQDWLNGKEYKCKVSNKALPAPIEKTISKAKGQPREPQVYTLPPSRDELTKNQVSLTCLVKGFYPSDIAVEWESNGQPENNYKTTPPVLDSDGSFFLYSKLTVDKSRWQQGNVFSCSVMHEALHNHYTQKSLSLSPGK
light: B1 light
notes: also called 1-152; 2-54; copies: 2 + 2
B9: anti-CD20 human IgG1 L234T/L235R/G236R (antibody)
heavy: B3 heavy with L238T, V239R, G240R, L247F, P296R, L304Y, L400P
light: B1 light
notes: also called 2-61; copies: 2 + 2
B10: anti-CD20 human IgG1 L234Q/L235R/G236R (antibody)
heavy: B3 heavy with L238Q, V239R, G240R, L247F, P296R, L304Y, L400P
light: B1 light
notes: also called 2-32; copies: 2 + 2
B11: anti-CD20 human IgG1 L234K/L235T/G236R (antibody)
heavy: B3 heavy with L238K, V239T, G240R, L247F, P296R, L304Y, L400P
light: B1 light
notes: also called 1-90; 2-25; copies: 2 + 2
B12: anti-CD20 human IgG1 L234T/L235E/G236R (antibody)
heavy: B3 heavy with L238T, V239E, G240R, L247F, P296R, L304Y, L400P
light: B1 light
notes: copies: 2 + 2
B13: anti-CD20 human IgG1 L234D/L235S/G236R (antibody)
heavy: B3 heavy with L238D, V239S, G240R, L247F, P296R, L304Y, L400P
light: B1 light
notes: also called 1-29; 2-10; copies: 2 + 2
B14: anti-CD20 human IgG1 L234A/L235A (LALA) (antibody)
heavy: not shown
light: B1 light
notes: also called 10.16; copies: 2 + 2
B15: anti-CD20 human IgG1 L234T/L235S/G236R (antibody)
heavy: B3 heavy with L238T, V239S, G240R, L247F, P296R, L304Y, L400P
light: B1 light
notes: also called 2-62; copies: 2 + 2
B16: anti-CD20 human IgG1 L234R/L235H/G236R (antibody)
heavy: B3 heavy with L238R, V239H, G240R, L247F, P296R, L304Y, L400P
light: B1 light
notes: also called 2-38; copies: 2 + 2
B17: anti-CD20 human IgG1 L234T/L235K/G236R (antibody)
heavy: B3 heavy with L238T, V239K, G240R, L247F, P296R, L304Y, L400P
light: B1 light
notes: also called 2-58; copies: 2 + 2
B18: anti-CD20 human IgG1 L234S/L235G/G236R (antibody)
heavy: B3 heavy with L238S, V239G, G240R, L247F, P296R, L304Y, L400P
light: B1 light
notes: also called 1-140; 2-47; copies: 2 + 2
B19: anti-CD20 human IgG1 L234Q/L235A/G236R (antibody)
heavy: not shown
light: B1 light
notes: also called 2-27; copies: 2 + 2
B20: anti-CD20 human IgG1 L234A/L235S/G236R (antibody)
heavy: not shown
light: B1 light
notes: also called 1-14; 2-4; copies: 2 + 2
B21: anti-CD20 human IgG1 L234K/L235V/G236R (antibody)
heavy: B3 heavy with L238K, G240R, L247F, P296R, L304Y, L400P
light: B1 light
notes: also called 1-91; 2-26; copies: 2 + 2
B22: anti-CD20 human IgG1 L234R/L235D/G236R (antibody)
heavy: B3 heavy with L238R, V239D, G240R, L247F, P296R, L304Y, L400P
light: B1 light
notes: copies: 2 + 2
B23: anti-CD20 human IgG1 L234T/L235G/G236R (antibody)
heavy: B3 heavy with L238T, V239G, G240R, L247F, P296R, L304Y, L400P
light: B1 light
notes: copies: 2 + 2
B24: anti-CD20 human IgG1 L234R/L235K/G236R (antibody)
heavy: B3 heavy with L238R, V239K, G240R, L247F, P296R, L304Y, L400P
light: B1 light
notes: also called 2-40; copies: 2 + 2
B25: anti-CD20 human IgG1 L234D/L235K/G236R (antibody)
heavy: B3 heavy with L238D, V239K, G240R, L247F, P296R, L304Y, L400P
light: B1 light
notes: also called 1-23; 2-7; copies: 2 + 2
B26: anti-CD20 human IgG1 L234Q/L235D/G236R (antibody)
heavy: B3 heavy with L238Q, V239D, G240R, L247F, P296R, L304Y, L400P
light: B1 light
notes: also called 2-28; copies: 2 + 2
B27: anti-CD20 human IgG1 L234R/L235I/G236R (antibody)
heavy: B3 heavy with L238R, V239I, G240R, L247F, P296R, L304Y, L400P
light: B1 light
notes: also called 2-39; copies: 2 + 2
B28: anti-CD20 human IgG1 L234K/L235S/G236R (antibody)
heavy: B3 heavy with L238K, V239S, G240R, L247F, P296R, L304Y, L400P
light: B1 light
notes: also called 1-89; 2-24; copies: 2 + 2
B29: anti-CD20 human IgG1 L234T/L235M/G236R (antibody)
heavy: B3 heavy with L238T, V239M, G240R, L247F, P296R, L304Y, L400P
light: B1 light
notes: also called 1-160; copies: 2 + 2
B30: anti-CD20 human IgG1 L234K/L235R/G236R (antibody)
heavy: B3 heavy with L238K, V239R, G240R, L247F, P296R, L304Y, L400P
light: B1 light
notes: also called 1-88; 2-23; copies: 2 + 2

Biological target: T1, Histidine-tagged recombinant human FcγRI (CD64) (human, UniProt P12314 16-288, limits assumed)
T1 construct: bought
Test: SPR, His-FcγRI captured; Expt 1;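 note: SPR at 25 °C on anti-His antibody chip capturing FcγRI, Fc-variant antibodies injected at 100 µg/mL for 1 min, signal near end of injection minus buffer blank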

Binder	Corrected response (RU)
B1	156 RU
B2	8.8 RU

Biological target: T1, Histidine-tagged recombinant human …
Test: SPR, His-FcγRI captured; Expt 3;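 note: biacore T200 SPR at 25 °C, Fc-variant antibodies at 100 µg/mL flowed 1 min over anti-His-captured FcγRI, signal taken just before injection end minus a buffer blank cycle; antibody analyte injected at 100 µg/mL for 1 min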

Binder	Corrected response (RU)
B2	65 RU
B3	2510 RU
B4	1.4 RU

Biological target: T2, Histidine-tagged recombinant human FcγRI (CD64) (human, UniProt P12314 16-288)
T2 construct: bought; also called Sino Biological Cat. No. 12056-H08H
Test: SPR, culture supernatant, captured His-FcγRI;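 note: biacore T200 SPR at 25 °C, anti-His capture, supernatants of HEK293 cells expressing IgG1 Fc variants injected 1 min, reference-subtracted response read 55 s after injection start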

Binder	Mean binding response
B5	25.6 RU
B6	17.2 RU
B7	22.4 RU
B8	11.8 RU
B9	13.6 RU
B10	20.1 RU
B11	15.8 RU
B12	24 RU
B13	26.3 RU
B14	65 RU
B15	25.4 RU
B16	14.3 RU
B17	6.7 RU
B18	11.2 RU
B19	13.4 RU
B20	32.1 RU
B21	12.8 RU
B22	11.1 RU
B23	26.9 RU
B24	19.2 RU
B25	20.9 RU
B26	18.9 RU
B27	10.7 RU
B28	16.1 RU
B29	31.6 RU
B30	13.9 RU
